Experimental data: article PMC8732845, “Novel interaction between neurotrophic factor-α1/carboxypeptidase E and serotonin receptor, 5-HTR1E, protects human neurons against oxidative/neuroexcitotoxic stress via β-arrestin/ERK signaling” (Cellular and Molecular Life Sciences: CMLS, 2021)

Target: 5-hydroxytryptamine receptor 1-E (5-HTR1E) on stably transfected HEK293 cells (human, UniProt P28566 1-365)
Assay: cell-based or functional assay

Chain of 5-hydroxytryptamine receptor 1-E (5-HTR1E) on stably transfected HEK293 cells (P28566 whole entry): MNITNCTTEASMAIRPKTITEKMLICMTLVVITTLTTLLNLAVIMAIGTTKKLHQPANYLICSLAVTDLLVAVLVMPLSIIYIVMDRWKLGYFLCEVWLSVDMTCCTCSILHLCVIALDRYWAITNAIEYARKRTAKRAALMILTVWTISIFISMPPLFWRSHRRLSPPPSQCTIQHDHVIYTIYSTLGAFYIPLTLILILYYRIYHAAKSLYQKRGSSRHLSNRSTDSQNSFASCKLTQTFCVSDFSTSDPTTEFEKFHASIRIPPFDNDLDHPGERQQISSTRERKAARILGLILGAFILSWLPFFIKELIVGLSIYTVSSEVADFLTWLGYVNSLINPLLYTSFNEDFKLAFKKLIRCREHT

CREB phosphorylation (Western blot, pCREB/tCREB) in 5-HTR1E stable cells, 50 nM NF-α1/CPE, 10–60 min (value after 20 min); not in control HEK293 cells: 1.3 fold
phosphorylation of ERK 1/2 (Western blot, pERK/tERK) in 5-HTR1E stable HEK293 cells, 0–50 nM NF-α1/CPE for 5–15 min; not in control HEK293 cells: 3.4 fold
B1: Recombinant mouse NF-α1/CPE (neurotrophic factor-α1/carboxypeptidase E), unlabeled (ligand)
chain: not shown
